Data published in patent US20120135931A1.

Legend:
[1] = biological target: human plasma derived thrombin (human), P00734; experiment: cell-based or functional assay

## recombinant α-thrombin (based on human α-thrombin sequence)
s-variegin
  cleavage of s-variegin by thrombin at 24° C. (RP-HPLC), extent at 360 min: 360 min was needed for ~90% of cleavage

## MHKTAPPFDFEAIPEEYLDDES (modifications not checked) [MH22]
[1]
  percent inhibition of thrombin amidolytic activity at equimolar concentration: 15%

## MHKTAPPFDFEAIPEEYL (modifications not checked) [MH18]
[1]
  percent inhibition of thrombin amidolytic activity at equimolar concentration: 15%
